{
  "source": "paper PMC10786891",
  "about": "“Massively parallel profiling of RNA-targeting CRISPR-Cas13d”",
  "binders": {"B1": {"name": "target 1 MT 5'PFS GGA 3'PFS CAU (mixed)", "RNA 1": "CACCCGUGCAAAAAUGCAGGGGUCUAAAACUGAGCGGAUAACCUCUCUAUGG", "RNA 2": "GGGAAUGGAUCCACAUCUACGAAUUCGGACCAUAGAGAGGUUAUCCGCUCACAUAGAUCGGAAGAGCACACGU"}, "B2": {"name": "target 1 MT 5'PFS CUC 3'PFS UCA (mixed)", "RNA 1": "B1 RNA 1", "RNA 2": "B1 RNA 2 with G27C, G28U, A29C, C52U, A53C, U54A"}, "B3": {"name": "target 1 MT 5'PFS UGU 3'PFS CGA (mixed)", "RNA 1": "B1 RNA 1", "RNA 2": "B1 RNA 2 with G27U, A29U, A53G, U54A"}, "B4": {"name": "target 1 C6G,G13A (mixed)", "RNA 1": "B1 RNA 1", "RNA 2": "B1 RNA 2 with G28U, G39A, C46G, A53C, U54G"}, "B5": {"name": "target 1 MT 5'PFS ACA 3'PFS UGA (mixed)", "RNA 1": "B1 RNA 1", "RNA 2": "B1 RNA 2 with G27A, G28C, C52U, A53G, U54A"}, "B6": {"name": "target 1 MT 5'PFS CUC 3'PFS UCG (mixed)", "RNA 1": "B1 RNA 1", "RNA 2": "B1 RNA 2 with G27C, G28U, A29C, C52U, A53C, U54G"}, "B7": {"name": "target 1 MT 5'PFS GGG 3'PFS AAC (mixed)", "RNA 1": "B1 RNA 1", "RNA 2": "B1 RNA 2 with A29G, C52A, U54C"}, "B8": {"name": "target 1 MT 5'PFS GGG 3'PFS AAG (mixed)", "RNA 1": "B1 RNA 1", "RNA 2": "B1 RNA 2 with A29G, C52A, U54G"}, "B9": {"name": "target 1 MT 5'PFS CUU 3'PFS UCU (mixed)", "RNA 1": "B1 RNA 1", "RNA 2": "B1 RNA 2 with G27C, G28U, A29U, C52U, A53C"}, "B10": {"name": "target 1 MT 5'PFS UUG 3'PFS ACU (mixed)", "RNA 1": "B1 RNA 1", "RNA 2": "B1 RNA 2 with G27U, G28U, A29G, C52A, A53C"}, "B11": {"name": "target 1 MT 5'PFS GAA 3'PFS AUU (mixed)", "RNA 1": "B1 RNA 1", "RNA 2": "B1 RNA 2 with G28A, C52A, A53U"}, "B12": {"name": "target 1 MT 5'PFS GAC 3'PFS AGA (mixed)", "RNA 1": "B1 RNA 1", "RNA 2": "B1 RNA 2 with G28A, A29C, C52A, A53G, U54A"}, "B13": {"name": "target 1 MT 5'PFS ACA 3'PFS UGU (mixed)", "RNA 1": "B1 RNA 1", "RNA 2": "B1 RNA 2 with G27A, G28C, C52U, A53G"}, "B14": {"name": "target 1 MT 5'PFS GUA 3'PFS CGA (mixed)", "RNA 1": "B1 RNA 1", "RNA 2": "B1 RNA 2 with G28U, A53G, U54A"}, "B15": {"name": "target 1 MT 5'PFS GUC 3'PFS UUA (mixed)", "RNA 1": "B1 RNA 1", "RNA 2": "B1 RNA 2 with G28U, A29C, C52U, A53U, U54A"}, "B16": {"name": "target 1 MT 5'PFS GUA 3'PFS CGG (mixed)", "RNA 1": "B1 RNA 1", "RNA 2": "B1 RNA 2 with G28U, A53G, U54G"}, "B17": {"name": "target 1 MT 5'PFS GGC 3'PFS UAU (mixed)", "RNA 1": "B1 RNA 1", "RNA 2": "B1 RNA 2 with A29C, C52U"}, "B18": {"name": "target 1 insC 3' of 16,insA 3' of 4 (mixed)", "RNA 1": "B1 RNA 1", "RNA 2": "GGGAAUGGAUCCACAUCUACGAAUUCGUACCAUAGACGAGGUUAUCCGCAUCACCGAGAUCGGAAGAGCACACGU"}, "B19": {"name": "target 1 complement block 6-12 (mixed)", "RNA 1": "B1 RNA 1", "RNA 2": "GGGAAUGGAUCCACAUCUACGAAUUCGUACCAUAGAGAGCAAUAGGGCUCACCGAGAUCGGAAGAGCACACGU"}, "B20": {"name": "target 1 MT 5'PFS GUA 3'PFS CGC (mixed)", "RNA 1": "B1 RNA 1", "RNA 2": "B1 RNA 2 with G28U, A53G, U54C"}, "B21": {"name": "target 1 MT 5'PFS GGC 3'PFS UAG (mixed)", "RNA 1": "B1 RNA 1", "RNA 2": "B1 RNA 2 with A29C, C52U, U54G"}, "B22": {"name": "target 1 MT 5'PFS CUU 3'PFS ACU (mixed)", "RNA 1": "B1 RNA 1", "RNA 2": "B1 RNA 2 with G27C, G28U, A29U, C52A, A53C"}, "B23": {"name": "target 1 MT 5'PFS GAA 3'PFS AUC (mixed)", "RNA 1": "B1 RNA 1", "RNA 2": "B1 RNA 2 with G28A, C52A, A53U, U54C"}, "B24": {"name": "target 1 MT 5'PFS CCU 3'PFS UAU (mixed)", "RNA 1": "B1 RNA 1", "RNA 2": "B1 RNA 2 with G27C, G28C, A29U, C52U"}, "B25": {"name": "target 1 MT 5'PFS GGC 3'PFS UAC (mixed)", "RNA 1": "B1 RNA 1", "RNA 2": "B1 RNA 2 with A29C, C52U, U54C"}, "B26": {"name": "target 1 MT 5'PFS UGC 3'PFS CCU (mixed)", "RNA 1": "B1 RNA 1", "RNA 2": "B1 RNA 2 with G27U, A29C, A53C"}, "B27": {"name": "target 1 MT 5'PFS GCU 3'PFS GCU (mixed)", "RNA 1": "B1 RNA 1", "RNA 2": "B1 RNA 2 with G28C, A29U, C52G, A53C"}, "B28": {"name": "target 1 MT 5'PFS CUU 3'PFS ACA (mixed)", "RNA 1": "B1 RNA 1", "RNA 2": "B1 RNA 2 with G27C, G28U, A29U, C52A, A53C, U54A"}, "B29": {"name": "target 1 MT 5'PFS GUA 3'PFS CGU (mixed)", "RNA 1": "B1 RNA 1", "RNA 2": "B1 RNA 2 with G28U, A53G"}, "B30": {"name": "target 1 MT 5'PFS GAC 3'PFS AGC (mixed)", "RNA 1": "B1 RNA 1", "RNA 2": "B1 RNA 2 with G28A, A29C, C52A, A53G, U54C"}, "B31": {"name": "target 1 MT 5'PFS GAC 3'PFS AGU (mixed)", "RNA 1": "B1 RNA 1", "RNA 2": "B1 RNA 2 with G28A, A29C, C52A, A53G"}, "B32": {"name": "target 1 MT 5'PFS GGC 3'PFS UAA (mixed)", "RNA 1": "B1 RNA 1", "RNA 2": "B1 RNA 2 with A29C, C52U, U54A"}, "B33": {"name": "target 1 MT 5'PFS UGC 3'PFS CCC (mixed)", "RNA 1": "B1 RNA 1", "RNA 2": "B1 RNA 2 with G27U, A29C, A53C, U54C"}, "B34": {"name": "target 1 MT 5'PFS UGC 3'PFS CCG (mixed)", "RNA 1": "B1 RNA 1", "RNA 2": "B1 RNA 2 with G27U, A29C, A53C, U54G"}},
  "note": "Changes are numbered by the printed parent chain. Numbers in names are those of the source.",
  "data": [
    {"biological_target": "T1, EsCas13d, nuclease-dead (Eubacterium siraeum, UniProt B0MS50, R295A;H300A;R849A;H854A)", "T1 sequence": "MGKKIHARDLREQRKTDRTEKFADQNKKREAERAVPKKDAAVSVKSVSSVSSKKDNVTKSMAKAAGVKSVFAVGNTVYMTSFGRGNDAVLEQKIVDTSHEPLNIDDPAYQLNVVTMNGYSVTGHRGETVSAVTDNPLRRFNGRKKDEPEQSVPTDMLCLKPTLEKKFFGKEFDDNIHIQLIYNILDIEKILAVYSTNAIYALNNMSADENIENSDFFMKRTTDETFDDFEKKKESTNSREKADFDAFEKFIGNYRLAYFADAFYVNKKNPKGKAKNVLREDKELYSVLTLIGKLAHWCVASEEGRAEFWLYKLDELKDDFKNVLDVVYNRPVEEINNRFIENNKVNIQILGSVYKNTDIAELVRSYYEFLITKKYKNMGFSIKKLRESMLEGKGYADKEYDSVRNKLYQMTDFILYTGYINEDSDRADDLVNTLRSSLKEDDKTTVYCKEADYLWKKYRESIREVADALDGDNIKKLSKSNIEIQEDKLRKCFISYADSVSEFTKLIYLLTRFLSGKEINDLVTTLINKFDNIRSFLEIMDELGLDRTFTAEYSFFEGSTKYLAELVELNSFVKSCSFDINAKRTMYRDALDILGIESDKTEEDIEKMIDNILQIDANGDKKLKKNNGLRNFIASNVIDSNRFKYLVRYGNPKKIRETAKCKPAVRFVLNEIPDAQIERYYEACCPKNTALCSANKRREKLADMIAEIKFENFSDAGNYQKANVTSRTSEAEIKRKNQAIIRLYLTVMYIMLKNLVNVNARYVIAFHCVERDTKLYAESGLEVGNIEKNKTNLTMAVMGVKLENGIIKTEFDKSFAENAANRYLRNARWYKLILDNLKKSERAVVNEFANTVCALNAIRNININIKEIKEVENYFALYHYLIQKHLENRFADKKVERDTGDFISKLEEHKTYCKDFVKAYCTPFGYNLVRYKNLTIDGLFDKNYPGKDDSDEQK", "assay": "crRNA (strand 1, pre-loaded); Mg2+; 40 mM Tris-HCl pH 7.5, 150 mM NaCl, 6 mM MgCl2, 1 mM DTT, 0.1% Tween-20, 0.2 mg/ml BSA; 25 C; 10 min per concentration, then washed", "settings": "tags: His6-TwinStrep-SUMO cleaved; N-terminal SNAP kept (SNAP-Surface 488); label: 3' end held by stalled T7 RNA polymerase", "units": {"Kd": "nM"}, "values": [
      {"binder": "B1", "Kd": "50.5 ± 18"},
      {"binder": "B2", "Kd": "~26"},
      {"binder": "B3", "Kd": "60 ± 28.5"},
      {"binder": "B4", "Kd": "10.1 ± 0.7"},
      {"binder": "B5", "Kd": "15.5 ± 4.5"},
      {"binder": "B6", "Kd": "~85"},
      {"binder": "B7", "Kd": "35.5 ± 8.5"},
      {"binder": "B8", "Kd": "23.9 ± 3.25"},
      {"binder": "B9", "Kd": "30.5 ± 9"},
      {"binder": "B10", "Kd": "21 ± 5"},
      {"binder": "B11", "Kd": "24.5 ± 8.5"},
      {"binder": "B12", "Kd": "28 ± 14"},
      {"binder": "B13", "Kd": "45 ± 12"},
      {"binder": "B14", "Kd": "17.8 ± 2.55"},
      {"binder": "B15", "Kd": "12.2 ± 2.45"},
      {"binder": "B16", "Kd": "15.2 ± 1.15"},
      {"binder": "B17", "Kd": "16 ± 4"},
      {"binder": "B18", "Kd": "38 ± 17"},
      {"binder": "B19", "Kd": "16.7 ± 1"},
      {"binder": "B20", "Kd": "11.2 ± 1.15"},
      {"binder": "B21", "Kd": "13.4 ± 1.8"},
      {"binder": "B22", "Kd": "29.5 ± 10.5"},
      {"binder": "B23", "Kd": "43 ± 15"},
      {"binder": "B24", "Kd": "~15"},
      {"binder": "B25", "Kd": "19 ± 5"},
      {"binder": "B26", "Kd": "15.5 ± 4.5"},
      {"binder": "B27", "Kd": "17 ± 5"},
      {"binder": "B28", "Kd": "~65.5"},
      {"binder": "B29", "Kd": "5.66 ± 0.48"},
      {"binder": "B30", "Kd": "13.6 ± 2.6"},
      {"binder": "B31", "Kd": "35.5 ± 10.5"},
      {"binder": "B32", "Kd": "20.9 ± 3.75"},
      {"binder": "B33", "Kd": "~23"},
      {"binder": "B34", "Kd": "11.8 ± 3.85"}
    ]}
  ]
}
